Measured values taken from US7888291B2, “Substrates and assays for β-secretase” (Elan Pharmaceuticals, Inc., priority 2000, dated 2011).
Entries after “also recorded” stand apart in the source; their conditions may differ. Marks after values point to notes of the source that are not given here. One block for each substance: values may come before it. Non-standard residues stand in square brackets, D forms with d. No end group written: not given here. Nle = CCCC[C@H](N)C(=O)O; SO3‑ = not defined here

Key:
Format in all cases: biochemical
[1] = target: T1, Hu-Asp2 (Homo sapiens, UniProt P56817); test: Hu-Asp2 peptide substrate cleavage assay (HPLC quantitation of cleavage products); conditions: for activity / rate of hydrolysis by Asp2 over wild type peptide (SEQ ID NO:20): Tables 3 and 4
T1 construct: made in house; host or cells: High Five insect cells

[2] = target: T1, Hu-Asp2; test: as above; parameters: key to Activity: Those substrates that were not cleaved by the Hu-Asp2 are indicated by a “−” sign; substrates that produced activity are indicated by “+” signs in which the greater the activity, the more + signs are provided; ++: substrates that produced activity are indicated by “+” signs in which the greater the activity, the more + signs are provided; ++++: substrates that produced activity are indicated by “+” signs in which the greater the activity, the more + signs are provided; conditions: for Activity: 200 μM test substrate, 210 nM Hu-Asp2 enzyme, pH 4.5, 37° C., 3 hours
Procedure: The peptides listed in Table 2 were designed, synthesized, and tested for activity as substrates for Hu-Asp2. 200 μM of each test substrate was incubated with 210 nM Hu-Asp2 enzyme at pH 4.5 at 37° C. for 3 hours. Of course it should be understood that these are merely exemplary assay conditions, and those of skill in the art will be able to vary these conditions and yet still provide appropriate Hu-Asp2 activity. For example, it is envisioned that the assays may be conducted at a pH range of from between about 4.0 to about 7.0. The amount of enzyme added to a given reaction mixture may also be varied and those of skill in the art will be able to perform assays defining the optimal enzyme concentrations necessary for a given assay, as such 150 nm; 200 nm; 250 nm; 300 nm or more or less enzyme may be added. Substrate concentration in those also may be varied such that an assay may use 100, 150 μM, 200 μM, 250 μM, 300 μM, 350 μM or more or less of any given; substrate. It may be that one substrate produces an optimum activity at one concentration whereas another substrate is needed to be present at a different concentration to produce an optimum cleavage rate. However, such optimizations of enzyme assay conditions is well within the skill of those in the art and will not require undue experimentation.
In an exemplary assay to determine the cleavage of the substrates of the present invention, Asp2 was prepared from High Five™ insect cells. Generally, the assasy are run in solution at acidic pH (4.0 to 5.0), at 25-37° C. in the presence of nM or sub-nanomolar enzyme. After a suitable period of incubation the reaction is stopped at a desired time by addition of 4% trifluoracetic acid (TFA). Substrates and products are separated using reverse phase HPLC. The disappearance of the substrates and the appearance of the products are monitored by continuous measurement of the absorbance of the effluent at […]. Furthermore, if the peptide comprises a tryptophan residue, the monitoring may additionally or alternatively involve continuous monitoring of fluorescence of tryptophan fluorescence (excitation at 280 nm, emission at […]) of the effluent.
In a typical assay, 210 nM enzyme and 200 μM substrate were incubated in 0.2 M sodium acetate at pH 4.5 in 100 μl volume at 37° C. for 1 to 3 hours. The assay was stopped by the addition of 50 μl 4% TFA to lower the pH below the active range of the enzyme. Subsequently, 100 μl of this mixture was injected into a Hewlett Packard Model 1090 HPLC equipped with a Vydac column (4.6 mm i.d.×150 mm, 5 μm) pre-equilibrated with 95% A (0.15% TFA in water), 5% B (0.15% TFA in acetonitrile). The constituents were then eluted from the column with the following linear gradients: 0-15 min: 5-50% B; 15-17 min: 50-100% B; 17-20 min: 100-5% B; 20-22 min: 5% B). The cleavage products were then quantitated using an enhanced integrator. […]

[3] = target: Hu-Asp (Homo sapiens, UniProt P56817); test: Hu-Asp cleavage assay variation for substrates of SEQ ID NO:190 and 191 (Vmax, Km, pH, ionic strength, DMSO); parameters: made in house; host or cells: High Five insect cells; conditions: 100 mM NaOAc/HOAc, pH 4.5 (stated for SEQ ID NO:190 and 191)
Procedure: In the substrates SEISY-EVEFRWKK (SEQ ID NO:190) and GLTNIKTEEISEISY-EVEFRWKK (SEQ ID NO:191), the 10 N-terminal amino acids of peptide SEISY-EVEFRWKK (SEQ ID NO:190) are identical to those of peptide SEISY-EVEFR (SEQ ID NO:152). The difference between the two peptide is the presence of a tryptophan and two lysines in the peptide of SEQ ID NO:190. […] Hu-Asp activity was tested towards SEISY-EVEFRWKK (SEQ ID NO:190) and GLTNIKTEEISEISY-EVEFRWKK (SEQ ID NO:191). […] The activity difference between the two peptides was particularly dramatic in the pH range 4.0-4.6. Specifically, it was 6.3-4.8 times higher for the peptide of SEQ ID NO:191. […] Both peptides were inhibited by increasing concentrations of DMSO. […] As expected, the N-terminus elongation increases activity. […] The development of the substrates of SEQ ID NO:190 and SEQ ID NO:191 is of great value in Hu-Asp inhibition studies and in studies concerning recombinant Hu-Asp refolding from E. coli inclusion bodies.
In a variation of the above assay for substrates of SEQ ID NO:190 or its N-terminally extended version depicted in SEQ ID NO:191), the substrates are incubated with the enzyme to a final reaction solution volume of 200 μl (although reaction mixtures of 50-100 μl also were used) composed of 5-50 μM peptide substrate, 1-10 nM enzyme, 0.1. M sodium acetate buffer at pH 4 to 5. […]

[4] = Table 5, 2 nM enzyme, 50 μM substrate, 25 mM Sodium acetate, pH 4.4, 37° C., 2 hr
[5] = Table 5, 2 nM enzyme, 50 μM substrate, 25 mM Sodium acetate, pH 4.4, 37° C., 2 hr, SEQ ID NO:141 = 100
[6] = Table 3, 200 nM enzyme, 200 μM substrate, 300 mM Na-acetate, 4% DMSO, pH 4.5, 37° C., 4 hr, APP-Sw = 100
[7] = Table 4, 200 nM enzyme, 200 μM substrate, pH 4.5, 37° C., 1 hr, SEQ ID NO:19 = 100

T1 sequence (P56817 46-501): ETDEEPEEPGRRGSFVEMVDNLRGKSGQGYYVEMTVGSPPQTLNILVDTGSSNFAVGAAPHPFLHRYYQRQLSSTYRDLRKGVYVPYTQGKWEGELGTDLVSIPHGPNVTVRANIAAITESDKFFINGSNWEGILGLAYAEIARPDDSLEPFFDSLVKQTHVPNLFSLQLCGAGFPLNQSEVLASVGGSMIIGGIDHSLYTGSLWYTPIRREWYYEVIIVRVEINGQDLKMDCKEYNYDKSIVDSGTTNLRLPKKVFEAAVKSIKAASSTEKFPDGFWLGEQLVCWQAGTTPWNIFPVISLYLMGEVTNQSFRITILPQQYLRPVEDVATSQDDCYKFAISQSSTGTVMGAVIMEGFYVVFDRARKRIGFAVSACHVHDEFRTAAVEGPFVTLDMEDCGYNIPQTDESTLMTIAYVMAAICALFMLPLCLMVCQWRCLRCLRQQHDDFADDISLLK
Sequence of Hu-Asp (P56817 46-501): as above

Substance: Biotin-KVEANY-EVEGERC(oregon green)KK
Vmax and Km compared with a previous biotinylated fluorescent substrate derived from the Swedish Mutant peptide [1]: at least twice better; also recorded: at least double
cleavage after 15 minutes ([1]; 200 mM sodium acetate, pH 4.5, 10 μM substrate, 50 nM enzyme, 37° C., 15 minutes): 20%
cleavage after 30 minutes ([1]; 200 mM sodium acetate, pH 4.5, 10 μM substrate, 50 nM enzyme, 37° C., 30 minutes): 37%
cleavage after 60 minutes ([1]; 200 mM sodium acetate, pH 4.5, 10 μM substrate, 50 nM enzyme, 37° C., 60 minutes): 57%
cleavage after 120 minutes ([1]; 200 mM sodium acetate, pH 4.5, 10 μM substrate, 50 nM enzyme, 37° C., 120 minutes): 82%
cleavage site [2]: between Tyr and Glu only

Substance: GLTNIKTEEISEISYEVEFRWKK [SEQ ID NO:191, GLTNIKTEEISEISY-EVEFRWKK]
Km [3]: 43.1 µM

Substance: KTEEISEVSY-EVEFR (KTEEISEVSYEVEFR)
rate of cleavage / activity over SEVSY-EVEFR (SEQ ID NO:141) [1]: 3.6 fold
Cleavage Activity [1, 4]: 0.58 µmol/min/mg
Relative rate of Cleavage [1, 5]: 360

Substance: KTINL-↓-EVEPS (KTINLEVEPS) [Peptide 2]
Relative rate of Cleavage [1, 6]: 92.0
activity as substrate of Hu-Asp2 (in words) [2]: activity similar to that of the Swedish mutant

Substance: KTINnle-↓-EVEPS (KTIN[Nle]EVEPS) [Peptide 3]
Relative rate of Cleavage [1, 6]: 92.6
activity as substrate of Hu-Asp2 (in words) [2]: activity similar to that of the Swedish mutation

Substance: KTISL- ↓-DVDPS (KTISLDVDPS) [Peptide 7]
Relative rate of Cleavage [1, 6]: 20.5
activity as substrate of Hu-Asp2 (in words) [2]: activity dropped substantially

Substance: KVEALY-AVEGERKK (KVEALYAVEGERKK)
Activity [2]: +

Substance: KVEANL-AVEGERKK (KVEANLAVEGERKK)
Activity [2]: +

Substance: KVEANY-EVEGERKK (KVEANYEVEGERKK)
activity as substrate of Hu-Asp2 (in words) [2]: good substrate for Hu-Asp
Activity [2]: ++++

Substance: KVEANY-LVEGERKK (KVEANYLVEGERKK)
Activity [2]: +

Substance: SEVKM-DAEFR (SEVKMDAEFR) [APP-Wildtype, reference compound]
Relative rate of Cleavage ([1]; Table 3, 200 nM enzyme, 200 μM substrate, 300 mM Na-acetate, 4% DMSO, pH 4.5, 37° C., 24 hr reaction): 2.1*
Relative rate of Cleavage ([1]; Table 4, 200 nM enzyme, 200 μM substrate, pH 4.5, 37° C., 24 hr reaction): 2.1*

Substance: SEVSY-↓-DAEFR (SEVSYDAEFR)
activity compared with Swedish mutant peptide (SEQ ID NO:19) ([1]; Table 4): about five times less than that of the Swedish mutation
Relative rate of Cleavage [1, 7]: 18.3
activity / rate of hydrolysis by Asp2 over wild type peptide (SEQ ID NO:20) [1]: about 9 fold

Substance: SEVSY-↓-EAEFR (SEVSYEAEFR)
Relative rate of Cleavage [1, 7]: 77.1
activity as substrate of Hu-Asp2 (in words) [2]: activity comparable to the Swedish mutation; also recorded: activity comparable to that of the Swedish mutant

Substance: TEVSY-EVEFR (TEVSYEVEFR)
Cleavage Activity [1, 4]: 0.27 µmol/min/mg
Relative rate of Cleavage [1, 5]: 160

Substance: VEALY-LVEGER (VEALYLVEGER)
activity as substrate of Hu-Asp2 (in words) [2]: found to be cleaved by the Hu-Asp2

Continued, in another order:

reduction of activity compared with peptide #3 (SEQ ID NO:134) ([1]; Table 3): about 10 fold
Relative rate of Cleavage [1, 6]: 12.2
Substance: KTINnle-↓-DVDPS (KTIN[Nle]DVDPS) [Peptide 5]

Relative rate of Cleavage [1, 6]: 93.6
Substance: KTINnle-↓-EVDPS (KTIN[Nle]EVDPS) [Peptide 4]
activity as substrate of Hu-Asp2 (in words) [2]: very well tolerated

activity as percentage of the Swedish mutation peptide (SEQ ID NO:19) ([1]; Table 3): 69%
Relative rate of Cleavage [1, 6]: 69.0
activity / rate of hydrolysis by Asp2 over wild type peptide (SEQ ID NO:20) [1]: about 35 fold
Substance: KTISL- ↓-DVEPS (KTISLDVEPS) [Peptide 6]

activity as percentage of the Swedish mutation peptide (SEQ ID NO:19) ([1]; Table 3): about 13%
Relative rate of Cleavage [1, 6]: 13.1
activity / rate of hydrolysis by Asp2 over wild type peptide (SEQ ID NO:20) [1]: six times better than wild type peptide
Substance: KTITL-↓-EVEPS (KTITLEVEPS) [Ubiquitin (Pep 1)]

Activity [2]: −
Substance: KVEALY-LV(SO3-)GER (KVEALYLV[SO3‑]GER; reading uncertain; also: sulfonated residue, parent residue not given here, printed as KVEALY-LV(SO3-)GER)

Activity [2]: ++++
Substance: KVEANY-AVEGERKK (KVEANYAVEGERKK)

Activity [2]: +
Substance: KVEANY-DVEGERKK (KVEANYDVEGERKK)

activity as substrate of Hu-Asp2 (in words) [2]: good substrate for Hu-Asp2
Substance: KVEANY-EVEGERCKK (KVEANYEVEGERCKK)

Cleavage Activity [1, 4]: 0.69 µmol/min/mg
Relative rate of Cleavage [1, 5]: 430
Substance: SEIDY-EVEFR (SEIDYEVEFR)

rate of cleavage / activity over SEVSY-EVEFR (SEQ ID NO:141) [1]: 5 fold
Cleavage Activity [1, 4]: 0.80 µmol/min/mg
Relative rate of Cleavage [1, 5]: 500
Substance: SEISY-EVEFR (SEISYEVEFR)

Cleavage Activity [1, 4]: 0.38 µmol/min/mg
Relative rate of Cleavage [1, 5]: 240
Substance: SEVDY-EVEFR (SEVDYEVEFR)

Relative rate of Cleavage [1, 6]: 100
Relative rate of Cleavage [1, 7]: 100.0
Substance: SEVNL-DAEFR (SEVNLDAEFR) [APP-Sw, reference compound]

activity as fraction of that of SEVSY-EVEFR (SEQ ID NO:141) ([1]; peptide activity assays): ⅕
Substance: SEVNY-↓-EVEFR (SEVNYEVEFR)

Cleavage Activity [1, 4]: 0.62 µmol/min/mg
Relative rate of Cleavage [1, 5]: 390
Substance: TEIDY-EVEFR (TEIDYEVEFR)

Cleavage Activity [1, 4]: 0.37 µmol/min/mg
Relative rate of Cleavage [1, 5]: 230
Substance: TEVDY-EVEFR (TEVDYEVEFR)

rate of cleavage / activity over SEVSY-EVEFR (SEQ ID NO:141) [1]: 8.4 fold
Cleavage Activity [1, 4]: 1.35 µmol/min/mg
Relative rate of Cleavage [1, 5]: 840
Substance: TRPGSGLTNIKTEEISEVSY-EVEFR (TRPGSGLTNIKTEEISEVSYEVEFR)

Activity [2]: ++
Substance: WRRVEALY-LVEGERK (WRRVEALYLVEGERK)
